The record followed here is publication PMC7351111, “WRNIP1 Is Recruited to DNA Interstrand Crosslinks and Promotes Repair” (Cell Reports, 2020).

The test deals with T1, His-ubiquitin (UniProt P0CG48 1-76).
T1 construct: ubiquitin (monomer); also called recombinant ubiquitin; source: recombinant
Briefly: pull-down; 2 ug Flag-HA-WRNIP1 or Flag-HA-WRNIP1-19R with 2 ug His-ubiquitin; 300 mM KCl, 40 mM Tris-HCl pH 8.0, 100 ug/ml BSA; 30 C for 1 h; captured on anti-HA Sepharose at 4 C; immunoblot against WRNIP1 and ubiquitin. The settings on record: both partners purified.

B1: Flag-HA-WRNIP1 (purified from Sf9 cells) (natural protein, human, UniProt Q96S55 1-665, looked up)
chain: MEVSGPEDDPFLSQLHQVQCPVCQQMMPAAHINSHLDRCLLLHPAGHAEPAAGSHRAGERAKGPSPPGAKRRRLSESSALKQPATPTAAESSEGEGEEGDDGGETESRESYDAPPTPSGARLIPDFPVARSSSPGRKGSGKRPAAAAAAGSASPRSWDEAEAQEEEEAVGDGDGDGDADADGEDDPGHWDADAAEAATAFGASGGGRPHPRALAAEEIRQMLQGKPLADTMRPDTLQDYFGQSKAVGQDTLLRSLLETNEIPSLILWGPPGCGKTTLAHIIASNSKKHSIRFVTLSATNAKTNDVRDVIKQAQNEKSFFKRKTILFIDEIHRFNKSQQDTFLPHVECGTITLIGATTENPSFQVNAALLSRCRVIVLEKLPVEAMVTILMRAINSLGIHVLDSSRPTDPLSHSSNSSSEPAMFIEDKAVDTLAYLSDGDARAGLNGLQLAVLARLSSRKMFCKKSGQSYSPSRVLITENDVKEGLQRSHILYDRAGEEHYNCISALHKSMRGSDQNASLYWLARMLEGGEDPLYVARRLVRFASEDIGLADPSALTQAVAAYQGCHFIGMPECEVLLAQCVVYFARAPKSIEVYSAYNNVKACLRNHQGPLPPVPLHLRNAPTRLMKDLGYGKGYKYNPMYSEPVDQEYLPEELRGVDFFKQRRC
notes: WRNIP1, human; Purification as in Liang et al., 2016; also called wild-type WRNIP1; source: Sf9, purified
In the case of B1, the binding result is on record as “binds”.
